In paper PMC5286830, “Prokaryotic ubiquitin-like protein remains intrinsically disordered when covalently attached to proteasomal target proteins” (BMC Structural Biology, 2017):

Biological target: MtbDop-F (Mycobacterium tuberculosis deamidase of Pup / depupylase, randomly fluorescein-labeled) (Mycobacterium tuberculosis) (UniProt P9WNU9)
Test: MST; Monolith NT.115, starting temperature 19 C; 30 nM MtbDop-F with serial 1:1 dilutions of MtbPup or MtbPup ~ FabD-3KR from 25 uM to 15 nM; 50 mM HEPES-NaOH pH 7.5, 150 mM NaCl, 1 mM MgCl2, 10% glycerol, 0.01% Tween-20; T-jump analysis, fit assuming 1:1 binding

Substance: MtbPup (prokaryotic ubiquitin-like protein from Mycobacterium tuberculosis, free) (from UniProt P9WHN5 1-64) (natural protein)
- Kd: 14.6 nM
